Consider one molecule from PMC10842940, “Establishment of dsDNA-dsDNA interactions by the condensin complex” (Molecular cell, 2023).

Test [1] has as its target T1, Cut3^Smc4 (fission yeast condensin SMC subunit) (S. pombe, UniProt P41004 1-1324).
T1 construct: Cut3 (Smc4), S. pombe condensin SMC subunit; cDNA cloned into an S. cerevisiae expression vector; source: S. cerevisiae (w303, pep4 deleted), co-overexpressed with the other four condensin subunits from GAL1-10 promoters; in cell extract, and purified as the complex (IgG-agarose, 3C protease elution, heparin, Superose 6)
T1 sequence (looked up): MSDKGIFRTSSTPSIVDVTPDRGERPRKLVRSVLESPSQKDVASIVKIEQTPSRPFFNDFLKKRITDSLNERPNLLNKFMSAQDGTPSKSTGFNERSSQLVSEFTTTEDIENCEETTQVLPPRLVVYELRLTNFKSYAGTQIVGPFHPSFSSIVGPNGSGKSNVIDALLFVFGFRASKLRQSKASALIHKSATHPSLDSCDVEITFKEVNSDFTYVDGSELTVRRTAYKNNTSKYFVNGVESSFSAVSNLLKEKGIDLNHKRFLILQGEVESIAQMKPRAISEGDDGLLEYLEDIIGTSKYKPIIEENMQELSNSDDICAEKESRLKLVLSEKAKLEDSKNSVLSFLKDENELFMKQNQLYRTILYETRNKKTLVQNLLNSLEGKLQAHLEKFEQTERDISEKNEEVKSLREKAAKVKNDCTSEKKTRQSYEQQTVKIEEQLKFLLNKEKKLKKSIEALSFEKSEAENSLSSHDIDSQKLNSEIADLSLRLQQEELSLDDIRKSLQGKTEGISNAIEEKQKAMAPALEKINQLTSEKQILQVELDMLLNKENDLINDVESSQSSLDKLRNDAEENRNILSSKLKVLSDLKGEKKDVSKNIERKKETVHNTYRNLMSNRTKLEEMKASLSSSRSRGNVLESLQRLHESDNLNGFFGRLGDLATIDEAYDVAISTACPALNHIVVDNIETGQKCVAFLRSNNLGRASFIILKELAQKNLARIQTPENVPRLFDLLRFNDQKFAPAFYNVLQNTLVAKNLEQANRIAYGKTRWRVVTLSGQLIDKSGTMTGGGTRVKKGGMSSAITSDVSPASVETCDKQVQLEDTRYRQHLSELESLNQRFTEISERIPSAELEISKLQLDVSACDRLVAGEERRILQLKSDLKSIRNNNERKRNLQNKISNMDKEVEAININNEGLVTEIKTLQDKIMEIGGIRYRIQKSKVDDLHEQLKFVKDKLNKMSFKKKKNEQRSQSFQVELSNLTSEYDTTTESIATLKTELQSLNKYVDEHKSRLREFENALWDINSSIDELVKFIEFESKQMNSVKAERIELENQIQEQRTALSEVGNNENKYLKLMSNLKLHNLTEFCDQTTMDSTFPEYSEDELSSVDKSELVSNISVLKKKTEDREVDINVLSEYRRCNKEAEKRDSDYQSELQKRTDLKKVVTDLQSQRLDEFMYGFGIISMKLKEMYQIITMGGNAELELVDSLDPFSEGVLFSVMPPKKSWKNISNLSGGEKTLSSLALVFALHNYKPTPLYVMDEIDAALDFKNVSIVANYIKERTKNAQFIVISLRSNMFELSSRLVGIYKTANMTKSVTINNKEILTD
In words: cross-linking; sulfo-SDA cross-link mass spectrometry (CLMS) of the purified five-subunit condensin complex with equimolar 124 bp linear dsDNA and 0.5 mM ADP·BeF3 (DNA-gripping state); CL buffer, 30°C 30 min, UV 365 nm on ice; 1% FDR at residue-pair level. The following applies: both partners purified.

Test [2] has as its target T2, Cut14^Smc2 (fission yeast condensin SMC subunit) (S. pombe, UniProt P41003 1-1172).
T2 construct: Cut14 (Smc2), S. pombe condensin SMC subunit; cDNA cloned into an S. cerevisiae expression vector; The Pk tag is used for the condensin immunoprecipitation in the DNA assays; also called Cut14-3xPk; source: S. cerevisiae (w303, pep4 deleted), co-overexpressed with the other four condensin subunits from GAL1-10 promoters; in cell extract, and purified as the complex (IgG-agarose, 3C protease …)
T2 sequence (looked up): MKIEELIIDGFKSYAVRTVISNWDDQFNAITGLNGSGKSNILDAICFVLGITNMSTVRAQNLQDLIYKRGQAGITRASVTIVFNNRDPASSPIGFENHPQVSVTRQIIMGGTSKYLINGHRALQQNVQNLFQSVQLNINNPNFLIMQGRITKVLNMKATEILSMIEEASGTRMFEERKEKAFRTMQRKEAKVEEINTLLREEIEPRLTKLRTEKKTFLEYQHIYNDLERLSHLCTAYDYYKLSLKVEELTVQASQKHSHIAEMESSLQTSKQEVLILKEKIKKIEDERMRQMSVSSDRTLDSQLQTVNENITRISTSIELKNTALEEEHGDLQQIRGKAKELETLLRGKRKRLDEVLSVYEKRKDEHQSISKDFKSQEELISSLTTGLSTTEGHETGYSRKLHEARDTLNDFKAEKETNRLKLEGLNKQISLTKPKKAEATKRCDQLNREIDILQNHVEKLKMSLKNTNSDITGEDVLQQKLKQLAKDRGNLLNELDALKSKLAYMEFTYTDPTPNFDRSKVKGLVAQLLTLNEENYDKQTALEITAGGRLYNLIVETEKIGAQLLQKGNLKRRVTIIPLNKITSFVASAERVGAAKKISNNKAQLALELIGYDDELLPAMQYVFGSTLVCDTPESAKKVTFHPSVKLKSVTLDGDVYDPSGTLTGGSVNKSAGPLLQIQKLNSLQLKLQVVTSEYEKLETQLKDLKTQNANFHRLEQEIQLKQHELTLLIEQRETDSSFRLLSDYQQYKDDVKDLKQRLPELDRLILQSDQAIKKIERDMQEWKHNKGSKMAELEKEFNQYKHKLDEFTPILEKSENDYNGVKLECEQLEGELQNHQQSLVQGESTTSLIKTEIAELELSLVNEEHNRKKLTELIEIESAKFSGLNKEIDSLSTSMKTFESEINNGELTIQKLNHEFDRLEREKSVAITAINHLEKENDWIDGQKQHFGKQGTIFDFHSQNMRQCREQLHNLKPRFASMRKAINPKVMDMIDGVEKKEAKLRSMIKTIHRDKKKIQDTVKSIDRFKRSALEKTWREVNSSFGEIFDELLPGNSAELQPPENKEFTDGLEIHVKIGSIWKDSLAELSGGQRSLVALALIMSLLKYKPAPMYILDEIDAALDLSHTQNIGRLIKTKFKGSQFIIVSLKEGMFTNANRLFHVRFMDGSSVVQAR
Described as above. The settings on record: both partners purified.

B1: Cnd1^Ycs4 (fission yeast condensin HEAT-repeat subunit) (natural protein, S. pombe, UniProt O94679 1-1158, looked up)
chain: MSLDLLSRLKKYIHDEENSDLDSIYAECENAGLTAVVNDVIDTLLLGTSSCFDEDCLEKLFAICSHFADLSSSVRNKVYDLLTSNISSESAILEDMISANATDFTVPQTNLETTGIAFQLTVNSLSSSNQLSVIRSSTNTVKGRKKNPTTNSNWNGISHVNALLDAIITLFQKKLSRVWTTSSERDMFLSLFLKPIYTLMESEINIKNASFRSRLFNIIGLAVQFHNHTTAAETNIIQNLQYFEHLSEYAADLVHIVTVQFNSVTLAEGIIRTLCSLEFNDNDVKGPKQVALFLVRLSSLIPNLCLKQLTQLVKLLDSESYTLRCAIIEVLANVVIDQIHDEAQNEMSESVPATVQSLMDLLSERLLDISPYCRTKVLHVFIKIFDLPIKYPRKRQEIAELVIRCLQDRSSHVRRNAIKLFSKLLTTHPFSVMHNGLLTRNIWEKGLSIIEEQLNSLQPKQQEKVVDSELEVDENLLEDATMIQDDESHEGESHLENSLSEYVDSVPAEEIVKVNLTKRFYLEALQYIDIVEAGAKIISQLLFAKNKSEVIESMDFFVFCNSFGISSSKLYIKKMIHLIWVKGTSDEGNNIQNHVLSCYKTLFFEPPPNSGTNEAANYIARNLISLTYDASLAELTSLEQMLCILMKDGYFSHLVITKLWQVYSYQKKDISRTQRRGSIIVIGMLALGNTDVVMQGLDHLIQIGLGPPGLEDLVLARYTCIAIKRIGKDASGSSNINFPNSHTLCQKLCMLLLRPSFSEEWFGLEEQAIEAIYAVAKHPDELCTNIILLLTKQLFKPSNHENTTSNDDHAMDEDLDDSPEEETLKDEEEIGIRLAHLIFLVGHVAIKQLVYIEYCEAEFKRRKADAERLAVQNSNNPINGQETSEYDLITGTSEDDFSEAMTFIRERELLYGENSLLSRFAPLVVELCSNHKSHNNQSLLLAASLTLSKFMCLSNNFCMEHLPLLITILEKCDNPIIRNNLVIGLADLTVCFNHFIDEISEYLYRRLMDEESSVKKTCFMTLAFLILAGQIKVKGQLGIMARSLEDEDARISDLARMFFTDFAAKDNSVYNNFIDIFSVLSRSAEEQDEDDAKFKRIIRFLTSFIEKERHTKQLAERLAARLDRCKTQRQWDHVVYALSLLPHKADNIQKLIDDGYHE
notes: Cnd1 (Ycs4), S. pombe condensin HEAT-repeat subunit; cDNA cloned into an S. cerevisiae expression vector; source: S. cerevisiae (w303, pep4 deleted), co-overexpressed with the other four condensin subunits from GAL1-10 promoters; in cell extract, and purified as the complex (IgG-agarose, 3C protease elution, heparin, Superose 6)
Regarding B1, the binding result in test [1] and in test [2] was “binds” in each case.
